From article PMC11559089

Assays:
[1] = biological target: full-length HIV-1 integrase Y99H/A128T (HIV-1); assay: SEC; Superdex 200 10/300 GL; 20 µM IN; 20 mM HEPES pH 7.5, 1 M NaCl, 10% glycerol, 5 mM BME; 0.3 mL/min; incubated 1 h at 4°C; size by protein standards; no inhibitor
[2] = biological target: full-length WT HIV-1 integrase (IN) (HIV-1); assay: as above

Substance	stoichiometry N [1]	stoichiometry N [2]
full-length HIV-1 integrase Y99H/A128T (enzyme)	4	–
full-length WT HIV-1 integrase (IN) (enzyme)	–	4
